These results are taken from the DeepSol protein solubility set.

The data set is described as follows: soluble on expression in E. coli; label from the status in PepcDB or PDB records.
For the sequence “MLDLFADAEPWQEPLAAGAVILRRFAFNAAEQLIRDINDVASQSPFRQMVAPGGYTMSVAMTNCGHLGWTTHRQGYLYSPIDPQTNKPWPAMPQSFHDLCQRAATAAGYPDFQPDACLINRYAPGAKLSLHQDKDEPDLRAPIVSVSLGLPAIFQFGGLKRNDPLKRLLLEHGDVVVWGGESRLFYHGIQPLKAGFHPLTTDCRYNLTFRQAGKKE”, the “soluble on expression in E. coli” value was “not soluble”.
With “MGSDKIHHHHHHMGEVIKNRYEFVVLFDVENGNPNGDPDAGNMPRIDPESGLGIVTDVCLKRKIRNYIETVKEDEDGYKIYIKENVPLNRSDREACKSLGINDDEDKKVTEALKKLKKSDKDADIKLRDYMCRNFYDIRAFGAVMTTFVKASLNCGQVRGPVQLGFARSIDPVISQEVTITRVAITTEKDAENKSNEMGRKSIVPYGLYRVEGYISANLARKVTGFSEEDLELLWDAVINMFENDHSAARGKMAVRELIVFKHSKELGDCPAYKLFDAVKVQKNDDIQYPRKYQDYTVTINDDEIPDTVEVKRMI”, the “soluble on expression in E. coli” value was “not soluble”.
The same measure for “MSLITQRSSMIGVVTAGFENPLRARLLSDLMAVLGQRAFTPLVTNADDPQQLRQALERLLSYRVAGLVMTSASPPLSVARQYLAHRIPVVMINREANLAGADVVVSDNAAGAAEAAQRLVHAGARRLAFVGPHTASFSARSRADAFAHALQRGNMSGATLASVIDTASDTHACGLDAAQQLFAAGHRPDGVFCSSDLLALGVIDAARAAFGLRVPDDVRVIGFDDIPAAAYHAYRLTTLRQDTQGLAHAAVDLLADRISAFDGASRTRVVPVTHVVRHSCAEGHHHHHH”: “soluble”.
Turning to “MSLHWSFPEMIRLFSDEYRSSMLSEGNFGVERESQRVNYSGDLALTPHPSVFGDKFENPRITTDFSESQIEMITPPLKSAEEVYKALNDINNEVKNALKGELLWPLSMPPRLPKEEDIPVAQFPDTEDGRQKQIYRNGLALRYGKKMQMISGIHYNFSFSDKMIDFIYRQLRIEKTKRQFIDEMYFSLTRNFLRYHWILIYLFGASPICDSTYNSVIFKELEKIEKCCPHCAGKIKNFNRYATSLRVSRFGYSDTDEKKYTVYFNSLREYETKIKKMMETESNKYSKLGIYKDGVQIQLNGNLLQSESEFYAPIRFKRNIKKGETQLTALVNRGVEYIEIRILDVNPFDKVGISVEQMNFLQVFNVFCLFEESKSIDEEQMERINTNHQLAALLGRNEDLMLYKYNDDSRIPLKNFGDEIFEKLRIVAKLMDKDNVEKKYSESVESEYKKLHNIELLPSERICREMDNDNRSYIQFGMEYAEAEGHHHHHH”, the “soluble on expression in E. coli” value is “not soluble”.
“SEFVLKHTAFAHLREVGSFPCTLNPHEAESLALVGAMIDQVLELHPGAQRLHIGCDEVYYLGEGEASRRWLQQEQNSTGKLCLSHMRAVASGVKARRPSVTPLVWDDMLRDLPEDQLAASGVPQLVEPVLWDYTADLDVHGKVLLMQKYRRCGFPQLWAASAFKGATGPSQAVPPVEHHLRNHVQWLQVAGSGPTDSLQGIILTGWQRYDHYSVLCELLPAGVPSLAACLQLLLRGGFDEDVKAKVENLLGISSLEKTDPVREGAGSFPGSNILALVTQVSLHLRSSVDALLEGNRYVTGWFSPYHRQRKLIHPVMVQHIQPAALSLLAQWSTLVQELEAALQLAFYPDAVEEWLEENVHPSLQRLQALLQDLSEVSAPPLPPTSPGRDVAQDP”: the “soluble on expression in E. coli” value is given as “not soluble”.
With “MGSSHHHHHHSSGLVPRGSHMRVAMISMHTSPLQQPGTGDSGGMNVYILSTATELAKQGIEVDIYTRATRPSQGEIVRVAENLRVINIAAGPYEGLSKEELPTQLAAFTGGMLSFTRREKVTYDLIHSHYWLSGQVGWLLRDLWRIPLIHTAHTLAAVKNSYRDDSDTPESEARRICEQQLVDNADVLAVNTQEEMQDLMHHYDADPDRISVVSPGADVELYSPGNDRATERSRRELGIPLHTKVVAFVGRLQPFKGPQVLIKAVAALFDRDPDRNLRVIICGGPSGPNATPDTYRHMAEELGVEKRIRFLDPRPPSELVAVYRAADIVAVPSFNESFGLVAMEAQASGTPVIAARVGGLPIAVAEGETGLLVDGHSPHAWADALATLLDDDETRIRMGEDAVEHARTFSWAATAAQLSSLYNDAIANENVDGETHHG” the entry was “soluble”; with “MGSDKIHHHHHHMSDQANQGDLEIRPSPLLKVINDLHSKYKSLKEGIVANYIPELAKVNPDLFSISIVTVDGQVYQVGDYQQLFTIQSISKVFAYGLALEDHGRDYVLTRVGVEPTGEAFNAIILDEQSKRPYNPMVNAGAIATTSLIKGAGATERLNRVLEMFRRYIGHDVFVDISVFTSERSTGHRNRAMAHLMLNFGMIDRNIEEALDLYFQQCAVMVNCHDLAVMAATLANRGVNPITGEQAVNSRYIKDILSVMYTCGMYNFAGEWAYKVGIPAKSGVCGGIMAVVPNLMGIAVFSPPLDIRGNSVRGVKVCEELSQQLGLHLFECMKVGNGEWGVGNCEC”, “not soluble”.
With “VLSARCHIRHIGSPGKDARCAHLSATLRPGIGISPTNVGNATVLADGTPAKPIQGAETMQRARHTGSCFSANARGPAISSGNPSRAGCGVPSSTTTPSSTPQAIRLLACTDSDALTVTRTAR” the entry was “not soluble”; with “MLVFIDDGSTNIKLQWQESDGTIKQHISPNSFKREWAVSFGDKKVFNYTLNGEQYSFDPISPDAVVTTNIAWQYSDVNVVAVHHALLTSGLPVSEVDIVCTLPLTEYYDRNNQPNTENIERKKANFRKKITLNGGDTFTIKDVKVMPESIPAGYEVLQELDELDSLLIIDLGGTTLDISQVMGKLSGISKIYGDSSLGVSLVTSAVKDALSLARTKGSSYLADDIIIHRKDNNYLKQRINDENKISIVTEAMNEALRKLEQRVLNTLNEFSGYTHVMVIGGGAELICDAVKKHTQIRDERFFKTNNSQYDLVNGMYLIGN”, “soluble”.
As to “MGSDKIHHHHHHMKNPNTVISSDYGPIIINLNDNAIGRQISQYGYWATDDINIINTLVNVQLDKFGQIMFYDVGANIGTHSLAIAKTHPDTVAIRAFEAQRQVFNMLCGTMAINGLSNVHCHHNAISEKIGDFIDIPIPDYNSANNFGSLELIPPKNSDNQGIIHSGKMESVKTLSIDSFNEKVDFIKMDIEGMEDKALLGAINTIEHHRPILFLEILKTDVNFVMTFLRERGYLGFQKSFDLIAIPIEYQLQVNGTNRVF”, the “soluble on expression in E. coli” value is listed as “not soluble”.
The same measure for “MGSDKIHHHHHHMTLTKEQLLNRGIEVIDKAENEGITLRVIGGAAIALIAKKGSELYPRVYKDIDYFGLSSQSTKISRFLEGIGLIPNKRFNALHGHIRLMFFDPIINSTVDVFLDEFVMCHKLVLKDRLRIMKYTIPTSDLFLTKMQIIQLTENDKKDIAALLYDVELGERDDEKTMNYNYIAKILSEDWGFYKTYTINHDRVLEFMKNDKNREIIEPKLVKLREIIEKHPKSIKWKMRAKIGEKVKWYEEPEEVNTNFTQQ”: “not soluble”; for “SMSRKRPPSDIHDSDGSSSSSHQSLKSTAKWAASLENLLEDPEGVKRFREFLKKEFSEENVLFWLACEDFKKMQDKTQMQEKAKEIYMTFLSSKASSQVNVEGQSRLNEKILEEPHPLMFQKLQDQIFNLMKYDSYSRFLKSDLFLKHKRTEE”: “soluble”; for “MAHHHHHHMPVSHHEGCGCKNSDEVLKGGEFLLKYINIDKVTALNEKTHGSCRKILKSYDNRLSPDNCESDVDHELIINIPFNSPCKISSLFLIGGEEGTYPRKIKIFSNREDIDFGNINDFKCVQELELSQDFHGSIEYPLKVTSLFNVSYLTLYFYENYGADTTKIFYIGLKGVGTNYIRKAVETVYEASPNLSDHKIEGSSKAAHFRFDAF”: “soluble”.
The same measure for “MAHHHHHHMPSEYHSSLADVSPRLSSRQRCSVRAGLSSTPRHAQGRRHLDPHHFTNLTDDAKRAEGRLGRAHVASSEQQKRADAYYATKQATVAQPPGAECNLYLKSYYYTPLSKQETPSPPPRPTTGFRADAQSTSFQLAEARLRKIKREHPQYEEEVTRALQQQHGDYSIVSTEQKISRRIAVEEYADGTNARMAQIEASTKYRGTPDLGSPAPAIKRSVPYALSEECPPRADTQLSCTSHVRLYPGCGRSSFPPETPVKPRARHLYDGPVPYDTTAASGEAYPSPPAVGERCNIYAKPTLVHVDERRHRDCVEDADSLAMKRARARSGARASQERPDFIFGPGPAPQPRPPSLRHHTEARWKAQERNAENRRTGRALYPQSHRSTSLW”: “not soluble”.
